In one experiment the target is GST-KIX. The experiment in a line: fluorescence polarization. Background: Polarisation of emitted light reports the rotation of a fluorescent probe.
Experiment [1] addresses GST-hDM2 (residues 1-188) (human) (UniProt Q00987). Put plainly: fluorescence polarization, competition format.
Experiment [2] concerns the target protein kinase A. The experiment in a line: cell-based or functional assay.
Experiment [3] has as its target protein kinase A. The experiment in a line: method not stated.
Experiment [4] addresses GST-hDM2 (residues 1-188) (human) (UniProt Q00987). The experiment in a line: fluorescence polarization, 25 nM labeled peptide with varying GST-hDM2, 4°C.
Experiment [5] shares this target. The experiment in a line: 400 nM GST-hDM2 and 10 nM p53AD-Flu in the absence of pZutshi.

As a reminder, the Kd is the free concentration of one partner at which half of the binding sites on the other are occupied at equilibrium, for simple one-to-one binding. Low values mean higher affinity, high ones lower affinity.

Chain of GST-hDM2 (residues 1-188) (human) (Q00987 1-188): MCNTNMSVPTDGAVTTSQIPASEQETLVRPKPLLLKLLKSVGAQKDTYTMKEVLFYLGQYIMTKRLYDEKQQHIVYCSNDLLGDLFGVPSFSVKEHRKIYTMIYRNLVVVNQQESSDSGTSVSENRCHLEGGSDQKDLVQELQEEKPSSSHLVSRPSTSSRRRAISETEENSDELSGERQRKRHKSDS
Chain of GST-KIX (P45481 586-665): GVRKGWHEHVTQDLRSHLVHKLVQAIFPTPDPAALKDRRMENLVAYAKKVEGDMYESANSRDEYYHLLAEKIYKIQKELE

As for Phosphorylated KID20 (peptide), in the experiment with GST-KIX, the dissociation constant Kd was 48 µM.
In turn, “p53AD peptide (residues 15-33), not labeled” came in with a dissociation constant Kd in experiment [1] of 1200 µM.
Regarding Phosphorylated KID31 (peptide), the dissociation constant (Kd) with GST-KIX stood at 1.2 µM.
For the substance PKI (peptide), the IC50 (inhibition of PKA) in the experiment with protein kinase A [2] turned out to be 0.008 µM. In addition, the Kd with protein kinase A [3] came out at 0.0312 µM.
On to p53AD-Flu (peptide), for which the Kd in experiment [4] is 0.261 µM. Further, in experiment [5], the percent bound came out at 60%.
